Data from patent publication US20040192898A1.
Values joined by “and” are separate entries in the source; they are usually repeats but may differ in a detail not shown here. Equal values may be shown once.

Assays:
[1] = biological target: β-amyloid peptide (1-42) conjugated to BSA (bovine) (UniProt P05067); experiment: competition ELISA, BSA-β-amyloid peptide coated, against biotinylated Mu266 (0.6 µg/ml); Exp. III, N56S series
[2] = biological target: β-amyloid peptide (1-42) conjugated to BSA (bovine) (UniProt P05067); experiment: competition ELISA, BSA-β-amyloid peptide coated, against biotinylated Mu266 (0.6 µg/ml); Exp. I, N56T series
[3] = biological target: β-amyloid peptide (1-42) conjugated to BSA (bovine) (UniProt P05067); experiment: competition ELISA, BSA-β-amyloid peptide coated, against biotinylated Mu266 (0.6 µg/ml); Exp. III, N56T series
[4] = biological target: β-amyloid peptide (1-42) conjugated to BSA (bovine) (UniProt P05067); experiment: competition ELISA, BSA-β-amyloid peptide coated, against biotinylated Mu266 (0.6 µg/ml); Exp. II, N56T series
[5] = biological target: β-amyloid peptide (1-42) conjugated to BSA (bovine) (UniProt P05067); experiment: competition ELISA, BSA-β-amyloid peptide coated, against biotinylated Mu266 (0.6 µg/ml); average of three, N56T series
[6] = biological target: β-amyloid peptide (1-42) conjugated to BSA (bovine) (UniProt P05067); experiment: competition ELISA as in Example 7, against biotinylated Mu266; mean, N=3
[7] = biological target: β-amyloid peptide (1-42) conjugated to BSA (bovine) (UniProt P05067); experiment: competition ELISA, BSA-β-amyloid peptide coated, against biotinylated Mu266 (0.6 µg/ml); Exp. I, N56S series
[8] = biological target: β-amyloid peptide (1-42) conjugated to BSA (bovine) (UniProt P05067); experiment: competition ELISA, BSA-β-amyloid peptide coated, against biotinylated Mu266 (0.6 µg/ml); average of three, N56S series
[9] = biological target: β-amyloid peptide (1-42) conjugated to BSA (bovine) (UniProt P05067); experiment: competition ELISA, Aβ1-42-BSA coated, against biotinylated Mu266 (0.3 µg/ml); mean of three experiments, second set
[10] = biological target: β-amyloid peptide (1-42) conjugated to BSA (bovine) (UniProt P05067); experiment: competition ELISA, Aβ1-42-BSA coated, against biotinylated Mu266 (0.3 µg/ml); mean of three experiments, first set
[11] = biological target: β-amyloid peptide (1-42) conjugated to BSA (bovine) (UniProt P05067); experiment: competition ELISA, BSA-β-amyloid peptide coated, against biotinylated Mu266 (0.6 µg/ml); Exp. II, N56S series
[12] = biological target: β-amyloid peptide (1-42) conjugated to BSA (bovine) (UniProt P05067); experiment: competition ELISA as in Example 7, against biotinylated Mu266; N=1
[13] = biological target: Amyloid-beta 1-42 (UniProt P05067); experiment: SPR, BIAcore 2000; antibody captured, Aβ flowed over
[14] = biological target: Amyloid-beta 1-40 (UniProt P05067); experiment: as above

IC50 [1]: 6.1 µg/mL
IC50 [2]: 4.3 µg/mL
IC50 [3]: 6.4 µg/mL
IC50 [4]: 6.4 µg/mL
IC50 [5]: 5.7 µg/mL
IC50 [6]: 7.6 µg/mL and 14 µg/mL
IC50 [7]: 3.8 µg/mL
IC50 [8]: 4.8 µg/mL
IC50 [9]: 3.87 µg/mL
IC50 [10]: 4.7 µg/mL
IC50 [11]: 4.5 µg/mL
IC50 [12]: 3.8 µg/mL and 7.1 µg/mL
Kd [13]: 4 pM
Kd [14]: 4 pM
Substance: Mouse monoclonal antibody 266
